± gives the standard error. For part of these data: Fewer inactive variants are shown than the library holds. Bounds are passed on as bounds.

The values that follow come from the supplement of paper PMC7125110.

B1: glmS ribozyme (parent)
chain: AUAAAAGCGCCAGAACUACAGAAAUGUAGUUGACGAGGAGGAGGUUUAUCGAAUUUUCGGCGGAUGCCUCCAAA

What all share (conditions): with glucosamine-6-phosphate
The variants in data set [1] derive from B1. As to the kind of experiment: kcat; higher = faster cleavage; RNA array. A digest of the protocol:
(§1)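 Barcoded ribozyme variants were transcribed in situ on sequenced MiSeq chips by E. coli RNA polymerase. At 37 °C, a hybridised Cy3 probe tracked them while glucosamine-6-phosphate (40 μM to 10 mM) in HEPES/KCl/Mg(OAc)2 buffer flowed in and tiles were imaged over ~14 h. Per-tile medians of signals normalised to baseline and to non-cleaving reference variants were fit to one- or two-exponential decays, giving kobs. kcat and KM came from weighted Michaelis–Menten fits across concentrations.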

In data set [2] the parent is B1. The experiment in a line: KM; higher = weaker cofactor use; RNA array. A digest of the protocol: as §1
Data set [3] covers variants of B1. The experiment in a line: self-cleavage kobs at 160 uM GlcN6P; higher = faster cleavage; RNA array. The method in brief: as §1
The variants in data set [4] derive from B1. As to the kind of experiment: self-cleavage kobs at 640 uM GlcN6P; higher = faster cleavage; RNA array. A digest of the protocol: as §1
In data set [5] the parent is B1. As to the kind of experiment: self-cleavage kobs at 2500 uM GlcN6P; higher = faster cleavage; RNA array. A digest of the protocol: as §1
Variants of B1 are the subject of data set [6]. As to the kind of experiment: self-cleavage kobs at 10000 uM GlcN6P; higher = faster cleavage; RNA array. The method in brief: as §1
Variants of B1 are the subject of data set [7]. As to the kind of experiment: self-cleavage kobs at 40 uM GlcN6P; higher = faster cleavage; RNA array. A digest of the protocol:
as §1

For orientation: kcat means the maximal rate divided by the concentration of active sites. For orientation: KM means the substrate concentration at which the rate is half of its maximum. As to G41U U46G, in the data set with glucosamine-6-phosphate [1], the kcat worked out at 0.00077 ± 0.00021 s⁻¹. Besides, the KM with glucosamine-6-phosphate [2] came out at 1560 ± 690 µM. For the same variant, the “self-cleavage kobs at 160 uM GlcN6P” value with glucosamine-6-phosphate [3] was determined as 8.6e-05 ± 2.2e-05 s⁻¹. For the same variant, the “self-cleavage kobs at 640 uM GlcN6P” value in the data set with glucosamine-6-phosphate [4] was 0.000197 ± 4.2e-05 s⁻¹. In the data set with glucosamine-6-phosphate [5], the “self-cleavage kobs at 2500 uM GlcN6P” value was 0.000433 ± 0.00011 s⁻¹. Further, in the data set with glucosamine-6-phosphate [6], the “self-cleavage kobs at 10000 uM GlcN6P” value came to 0.000804 ± 0.00021 s⁻¹.

With C16G C68G, the kcat in the data set with glucosamine-6-phosphate [1] came out at 1.82e-05 ± 5.5e-06 s⁻¹.

Take A48G U56A: the kcat in the data set with glucosamine-6-phosphate [1] came to 6.12e-05 ± 9.5e-06 s⁻¹. In addition, the “self-cleavage kobs at 2500 uM GlcN6P” value with glucosamine-6-phosphate [5] amounted to 4.68e-05 ± 7.6e-06 s⁻¹. Further, the “self-cleavage kobs at 10000 uM GlcN6P” value in the data set with glucosamine-6-phosphate [6] is 5.17e-05 ± 8.2e-06 s⁻¹.

As to U30C A33U, the turnover number (kcat) with glucosamine-6-phosphate [1] amounted to 1.74e-05 ± 7.2e-07 s⁻¹. In addition, in the data set with glucosamine-6-phosphate [2], the KM is 944 ± 280 µM.

With C50A U69G, the catalytic constant (kcat) with glucosamine-6-phosphate [1] was 5.56e-05 ± 1.8e-05 s⁻¹. The “self-cleavage kobs at 40 uM GlcN6P” value with glucosamine-6-phosphate [7] is 2.65e-05 ± 1.3e-05 s⁻¹. Moreover, the “self-cleavage kobs at 160 uM GlcN6P” value with glucosamine-6-phosphate [3] is 6.06e-05 ± 1.3e-05 s⁻¹. For the same variant, in the data set with glucosamine-6-phosphate [4], the “self-cleavage kobs at 640 uM GlcN6P” value is 7.86e-05 ± 1.3e-05 s⁻¹. Further, the “self-cleavage kobs at 2500 uM GlcN6P” value with glucosamine-6-phosphate [5] turned out to be 7.89e-05 ± 1.3e-05 s⁻¹.

Turning to G51U U54A, the kcat with glucosamine-6-phosphate [1] is less than 1e-05 s⁻¹.

Consider G13C U56A, for which the turnover number (kcat) with glucosamine-6-phosphate [1] was 0.000106 ± 6.7e-06 s⁻¹. Moreover, the KM with glucosamine-6-phosphate [2] amounted to 3410 ± 530 µM. Also, the “self-cleavage kobs at 2500 uM GlcN6P” value in the data set with glucosamine-6-phosphate [5] came out at 4.38e-05 ± 7.3e-06 s⁻¹. Further, the “self-cleavage kobs at 10000 uM GlcN6P” value with glucosamine-6-phosphate [6] is 7.93e-05 ± 9.5e-06 s⁻¹.

In the case of C16A A48C, in the data set with glucosamine-6-phosphate [1], the kcat was less than 1e-05 s⁻¹. Moreover, the “self-cleavage kobs at 40 uM GlcN6P” value in the data set with glucosamine-6-phosphate [7] is less than 1e-05 s⁻¹.

For A33U G40U, in the data set with glucosamine-6-phosphate [1], the kcat was 5.28e-05 ± 4e-06 s⁻¹. Further, in the data set with glucosamine-6-phosphate [7], the “self-cleavage kobs at 40 uM GlcN6P” value is less than 1e-05 s⁻¹. Also, the “self-cleavage kobs at 160 uM GlcN6P” value with glucosamine-6-phosphate [3] was less than 1e-05 s⁻¹. Also, the “self-cleavage kobs at 10000 uM GlcN6P” value with glucosamine-6-phosphate [6] is 1.68e-05 ± 7.9e-06 s⁻¹.

On to C10A C34U C67G C68G, for which, in the data set with glucosamine-6-phosphate [1], the catalytic constant (kcat) is 4.25e-05 ± 6.7e-06 s⁻¹. Also, the “self-cleavage kobs at 160 uM GlcN6P” value in the data set with glucosamine-6-phosphate [3] was 4.7e-05 ± 8.5e-06 s⁻¹. The “self-cleavage kobs at 2500 uM GlcN6P” value in the data set with glucosamine-6-phosphate [5] amounted to 4.25e-05 ± 9.3e-06 s⁻¹.

As for G13U A42C U69G, the kcat in the data set with glucosamine-6-phosphate [1] was found to be 0.00178 ± 0.00081 s⁻¹. Further, the “self-cleavage kobs at 40 uM GlcN6P” value with glucosamine-6-phosphate [7] turned out to be 8.5e-05 ± 2.1e-05 s⁻¹. For the same variant, the “self-cleavage kobs at 640 uM GlcN6P” value in the data set with glucosamine-6-phosphate [4] is 0.00028 ± 5.9e-05 s⁻¹. Moreover, the “self-cleavage kobs at 2500 uM GlcN6P” value in the data set with glucosamine-6-phosphate [5] came out at 0.000852 ± 0.00026 s⁻¹. In addition, the “self-cleavage kobs at 10000 uM GlcN6P” value with glucosamine-6-phosphate [6] amounted to 0.00141 ± 0.00021 s⁻¹.

As to U31G A64G, in the data set with glucosamine-6-phosphate [1], the kcat is 0.0127 ± 0.0021 s⁻¹. In addition, in the data set with glucosamine-6-phosphate [2], the KM is 1620 ± 370 µM. Also, in the data set with glucosamine-6-phosphate [7], the “self-cleavage kobs at 40 uM GlcN6P” value was determined as 0.000372 ± 5.2e-05 s⁻¹. The “self-cleavage kobs at 160 uM GlcN6P” value in the data set with glucosamine-6-phosphate [3] worked out at 0.000974 ± 0.00016 s⁻¹. Besides, in the data set with glucosamine-6-phosphate [4], the “self-cleavage kobs at 640 uM GlcN6P” value is 0.00368 ± 0.00071 s⁻¹. Moreover, the “self-cleavage kobs at 2500 uM GlcN6P” value with glucosamine-6-phosphate [5] is 0.00704 ± 0.0013 s⁻¹. For the same variant, in the data set with glucosamine-6-phosphate [6], the “self-cleavage kobs at 10000 uM GlcN6P” value stood at 0.0116 ± 0.0017 s⁻¹.

With C34G C68U, the kcat with glucosamine-6-phosphate [1] was 1.7e-05 ± 5.3e-06 s⁻¹.

Regarding U57C C71U, in the data set with glucosamine-6-phosphate [1], the kcat was 0.000136 ± 1.9e-05 s⁻¹. Further, the “self-cleavage kobs at 40 uM GlcN6P” value with glucosamine-6-phosphate [7] is less than 1e-05 s⁻¹. Besides, in the data set with glucosamine-6-phosphate [4], the “self-cleavage kobs at 640 uM GlcN6P” value stood at 9.57e-05 ± 1.9e-05 s⁻¹. Besides, in the data set with glucosamine-6-phosphate [5], the “self-cleavage kobs at 2500 uM GlcN6P” value came to 8.71e-05 ± 2.6e-05 s⁻¹. For the same variant, the “self-cleavage kobs at 10000 uM GlcN6P” value in the data set with glucosamine-6-phosphate [6] was 0.000139 ± 1.6e-05 s⁻¹.

Turning to A15U G32U C67U, the turnover number (kcat) in the data set with glucosamine-6-phosphate [1] amounted to 0.000433 ± 0.00015 s⁻¹. Besides, the “self-cleavage kobs at 640 uM GlcN6P” value with glucosamine-6-phosphate [4] is 3.29e-05 ± 1.4e-05 s⁻¹. In addition, the “self-cleavage kobs at 2500 uM GlcN6P” value with glucosamine-6-phosphate [5] worked out at 6.84e-05 ± 1.9e-05 s⁻¹. For the same variant, the “self-cleavage kobs at 10000 uM GlcN6P” value with glucosamine-6-phosphate [6] worked out at 0.000204 ± 3.8e-05 s⁻¹.

As for U65A C67U, the turnover number (kcat) in the data set with glucosamine-6-phosphate [1] turned out to be 0.00212 ± 0.00035 s⁻¹. Also, the Michaelis constant (KM) in the data set with glucosamine-6-phosphate [2] was 1260 ± 320 µM. For the same variant, in the data set with glucosamine-6-phosphate [7], the “self-cleavage kobs at 40 uM GlcN6P” value was found to be 7.1e-05 ± 8.1e-06 s⁻¹. For the same variant, in the data set with glucosamine-6-phosphate [3], the “self-cleavage kobs at 160 uM GlcN6P” value turned out to be 0.00022 ± 2.8e-05 s⁻¹. Also, the “self-cleavage kobs at 640 uM GlcN6P” value with glucosamine-6-phosphate [4] worked out at 0.000793 ± 8.5e-05 s⁻¹. The “self-cleavage kobs at 2500 uM GlcN6P” value in the data set with glucosamine-6-phosphate [5] was 0.00117 ± 0.00013 s⁻¹. Also, the “self-cleavage kobs at 10000 uM GlcN6P” value in the data set with glucosamine-6-phosphate [6] was found to be 0.00225 ± 0.00023 s⁻¹.

On to G59U C71U, for which, in the data set with glucosamine-6-phosphate [1], the kcat turned out to be 5.45e-05 ± 7.2e-06 s⁻¹. In addition, the “self-cleavage kobs at 2500 uM GlcN6P” value with glucosamine-6-phosphate [5] is 2.79e-05 ± 1.3e-05 s⁻¹. Moreover, the “self-cleavage kobs at 10000 uM GlcN6P” value with glucosamine-6-phosphate [6] was determined as 4.88e-05 ± 8.4e-06 s⁻¹.

As for A15G C58U, the kcat in the data set with glucosamine-6-phosphate [1] was 0.000166 ± 4e-05 s⁻¹. For the same variant, the “self-cleavage kobs at 2500 uM GlcN6P” value with glucosamine-6-phosphate [5] was found to be 2.52e-05 ± 1.2e-05 s⁻¹. Besides, in the data set with glucosamine-6-phosphate [6], the “self-cleavage kobs at 10000 uM GlcN6P” value came to 7.17e-05 ± 9.6e-06 s⁻¹.

Consider A33U U55C, for which the kcat with glucosamine-6-phosphate [1] stood at 0.000106 ± 1.2e-05 s⁻¹. The Michaelis constant (KM) in the data set with glucosamine-6-phosphate [2] worked out at 6170 ± 1300 µM. The “self-cleavage kobs at 40 uM GlcN6P” value with glucosamine-6-phosphate [7] is less than 1e-05 s⁻¹. For the same variant, the “self-cleavage kobs at 2500 uM GlcN6P” value with glucosamine-6-phosphate [5] stood at 3.12e-05 ± 5.7e-06 s⁻¹. The “self-cleavage kobs at 10000 uM GlcN6P” value in the data set with glucosamine-6-phosphate [6] worked out at 6.51e-05 ± 7.8e-06 s⁻¹.

Regarding A6U U46G, in the data set with glucosamine-6-phosphate [1], the catalytic constant (kcat) was determined as 0.000103 ± 5.5e-06 s⁻¹. The KM in the data set with glucosamine-6-phosphate [2] is 7260 ± 730 µM. The “self-cleavage kobs at 2500 uM GlcN6P” value with glucosamine-6-phosphate [5] was found to be 2.66e-05 ± 1.1e-05 s⁻¹. In addition, the “self-cleavage kobs at 10000 uM GlcN6P” value with glucosamine-6-phosphate [6] was 5.95e-05 ± 1.5e-05 s⁻¹.
